From US20240327815A1 (Zymeworks, published 2024)

Columns and labels:
[1] = biological target: Alpha SARS-CoV-2 spike on pseudotyped lentivirus (SARS-CoV-2, UniProt P0DTC2 14-1273); assay: cell-based or functional assay
[2] = biological target: Beta SARS-CoV-2 spike on pseudotyped lentivirus (SARS-CoV-2, UniProt P0DTC2 14-1273); assay: cell-based or functional assay
[3] = biological target: P.1 (Gamma) SARS-CoV-2 spike protein, plate-coated (MSD) (SARS-CoV-2, UniProt P0DTC2 14-1208); assay: MSD competition vs labelled ACE2

B1: REGN10933 (Casirivimab) (antibody, V domains shown)
VH: QVQLVESGGGLVKPGGSLRLSCAASGFTFSDYYMSWIRQAPGKGLEWVSYITYSGSTIYYADSVKGRFTISRDNAKSSLYLQMNSLRAEDTAVYYCARDRGTTMVPFDYWGQGTLVTVSS
VL: DIQMTQSPSSLSASVGDRVTITCQASQDITNYLNWYQQKPGKAPKLLIYAASNLETGVPSRFSGSGSGTDFTFTISGLQPEDIATYYCQQYDNLPLTFGGGTKVEIKR
Pseudovirus Neutralization (IC50, nM) [1]: 0.05 nM

B2: Bamlanivimab (antibody, V domains shown)
VH: QVQLVQSGAEVKKPGSSVKVSCKASGGTFSNYAISWVRQAPGQGLEWMGRIIPILGIANYAQKFQGRVTITADKSTSTAYMELSSLRSEDTAVYYCARGYYEARHYYYYYAMDVWGQGTAVTVSS
VL: not shown
Pseudovirus Neutralization (IC50, nM) [1]: 1.9 nM | Pseudovirus Neutralization (IC50, nM) [2]: > 100 nM

B3: Etesevimab (antibody, V domains shown)
VH: EVQLVESGGGLVQPGGSLRLSCAASGFTVSSNYMSWVRQAPGKGLEWVSVIYSGGSTFYADSVKGRFTISRDNSMNTLFLQMNSLRAEDTAVYYCARVLPMYGDYLDYWGQGTLVTVSS
VL: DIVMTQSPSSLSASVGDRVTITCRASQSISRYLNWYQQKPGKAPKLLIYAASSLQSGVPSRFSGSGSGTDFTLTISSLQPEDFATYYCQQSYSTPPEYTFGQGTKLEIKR
IC50 [3]: 0.08 nM

B4: REGN10987 (Imdevimab) (antibody, V domains shown)
VH: QVQLVESGGGVVQPGRSLRLSCAASGFTFSNYAMYWVRQAPGKGLEWVAVISYDGSNKYYADSVKGRFTISRDNSKNTLYLQMNSLRTEDTAVYYCASGSDYGDYLLVYWGQGTLVTVSS
VL: QSALTQPASVSGSPGQSITISCTGTSSDVGGYNYVSWYQQHPGKAPKLMIYDVSKRPSGVSNRFSGSKSGNTASLTISGLQSEDEADYYCNSLTSISTWVFGGGTKLTVLR
Pseudovirus Neutralization (IC50, nM) [1]: 0.13 nM | Pseudovirus Neutralization (IC50, nM) [2]: 41.1 nM
